# Changes are numbered by the printed parent chain. Names and notes keep the numbering of the source.
# T1: human beta-Klotho (KLB) (human, UniProt Q86Z14 53-997)
# T1 construct: bought recombinant protein, analyte of the BLI off-rate screen; also called human KLB
# T1 sequence (looked up): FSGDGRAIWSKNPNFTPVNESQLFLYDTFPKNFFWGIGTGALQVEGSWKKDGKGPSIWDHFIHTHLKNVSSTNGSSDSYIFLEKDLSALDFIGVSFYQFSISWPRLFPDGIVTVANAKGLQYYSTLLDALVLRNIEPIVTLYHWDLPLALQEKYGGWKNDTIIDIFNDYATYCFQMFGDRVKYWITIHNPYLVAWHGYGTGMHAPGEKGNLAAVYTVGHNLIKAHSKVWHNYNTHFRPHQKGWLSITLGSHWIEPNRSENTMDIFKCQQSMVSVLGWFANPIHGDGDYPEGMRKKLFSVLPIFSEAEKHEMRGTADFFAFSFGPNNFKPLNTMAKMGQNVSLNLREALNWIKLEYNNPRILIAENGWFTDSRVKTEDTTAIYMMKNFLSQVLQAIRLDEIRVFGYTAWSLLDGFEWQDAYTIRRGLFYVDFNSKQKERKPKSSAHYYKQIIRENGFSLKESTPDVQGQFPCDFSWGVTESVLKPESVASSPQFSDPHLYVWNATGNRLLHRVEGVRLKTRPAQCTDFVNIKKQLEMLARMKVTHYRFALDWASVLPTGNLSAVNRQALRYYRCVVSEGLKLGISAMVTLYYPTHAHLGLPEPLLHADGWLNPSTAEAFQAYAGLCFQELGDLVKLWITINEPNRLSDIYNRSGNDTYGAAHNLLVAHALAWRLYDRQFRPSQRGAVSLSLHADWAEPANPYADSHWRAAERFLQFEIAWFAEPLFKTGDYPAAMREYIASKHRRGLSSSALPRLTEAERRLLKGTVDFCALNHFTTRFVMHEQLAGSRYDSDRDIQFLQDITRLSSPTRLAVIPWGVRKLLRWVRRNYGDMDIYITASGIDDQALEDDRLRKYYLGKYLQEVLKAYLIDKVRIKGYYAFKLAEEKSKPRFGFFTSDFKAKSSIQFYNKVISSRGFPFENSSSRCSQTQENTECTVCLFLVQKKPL
# B1: 16H7 variant with light chain substitution Q88A (antibody, V domains shown)
# VH: not shown
# VL: SYVLTQPPSVSVAPGQTARITCGGNNIGSESVHWYQQKPGQAPVLVVYDDSDRPSGIPERFSGSNSGNTATLTISRVEAGDEADYYCAVWDGNSDHVVFGGGTKLTVLG
# B2: 16H7 variant with light chain substitution Q88M (antibody, V domains shown)
# VH: not shown
# VL: B1 VL with A88M
# B3: 16H7 variant with light chain substitution Q88G (antibody, V domains shown)
# VH: not shown
# VL: B1 VL with A88G
# B4: 16H7 variant with light chain substitution Q88L (antibody, V domains shown)
# VH: not shown
# VL: B1 VL with A88L
# B5: Ab0429 (antibody, human IgG1, lambda)
# heavy: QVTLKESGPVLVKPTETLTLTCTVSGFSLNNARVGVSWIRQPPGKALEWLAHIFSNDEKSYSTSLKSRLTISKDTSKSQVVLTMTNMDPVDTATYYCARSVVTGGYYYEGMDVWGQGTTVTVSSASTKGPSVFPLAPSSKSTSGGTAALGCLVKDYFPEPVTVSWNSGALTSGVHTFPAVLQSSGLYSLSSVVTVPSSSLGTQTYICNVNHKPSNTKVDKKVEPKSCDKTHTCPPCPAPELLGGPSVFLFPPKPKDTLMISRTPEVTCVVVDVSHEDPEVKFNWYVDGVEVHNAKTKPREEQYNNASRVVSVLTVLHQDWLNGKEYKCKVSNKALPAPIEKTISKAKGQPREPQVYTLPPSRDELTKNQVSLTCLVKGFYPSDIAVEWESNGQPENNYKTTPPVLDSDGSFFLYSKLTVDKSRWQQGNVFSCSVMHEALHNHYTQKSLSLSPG
# light: SYVLTQPPSVSVAPGQTARITCGGSNIGSESVHWYQQKPGQAPVLVVYSASDRPSGIPERFSGSNSGNTATLTISRVEAGDEADYYCQVWEGESDHVVFGGGTKLTVLGQPKANPTVTLFPPSSEELQANKATLVCLISDFYPGAVTVAWKADGSPVKAGVETTKPSKQSNNKYAASSYLSLTPEQWKSHRSYSCQVTHEGSTVEKTVAPTECS
# B6: Ab0430 (antibody, human IgG1, lambda)
# heavy: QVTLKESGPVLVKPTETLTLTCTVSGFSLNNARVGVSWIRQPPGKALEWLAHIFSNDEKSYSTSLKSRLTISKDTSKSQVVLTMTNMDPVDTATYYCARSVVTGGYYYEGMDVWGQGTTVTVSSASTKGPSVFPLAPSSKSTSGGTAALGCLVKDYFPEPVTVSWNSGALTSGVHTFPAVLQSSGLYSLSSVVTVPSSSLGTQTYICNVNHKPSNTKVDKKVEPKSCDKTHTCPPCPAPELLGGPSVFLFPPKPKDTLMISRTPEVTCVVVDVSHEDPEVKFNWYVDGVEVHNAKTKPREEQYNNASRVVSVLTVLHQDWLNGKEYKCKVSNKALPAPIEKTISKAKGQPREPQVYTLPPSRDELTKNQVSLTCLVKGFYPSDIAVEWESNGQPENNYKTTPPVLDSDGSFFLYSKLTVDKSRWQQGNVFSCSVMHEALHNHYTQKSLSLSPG
# light: B5 light with S49E, A50E
# What was measured:
# [1] = molecular target: T1, human beta-Klotho (KLB); assay: BLI off-rate screen
# [2] = molecular target: cell surface receptor composed of FGFR1c and co-receptor beta-Klotho (KLB) on iLite FGF21 Assay Ready Cells (human, UniProt P11362 22-822; Q86Z14 1-1044); assay: cell-based or functional assay
# [3] = molecular target: human FGFR1c/KLB receptor complex on primary human adipocytes (human, UniProt P11362 22-822; Q86Z14 1-1044); assay: cell-based or functional assay
# Sequence of human FGFR1c/KLB receptor complex on primary human adipocytes (P11362 22-822, chain 1 of 2): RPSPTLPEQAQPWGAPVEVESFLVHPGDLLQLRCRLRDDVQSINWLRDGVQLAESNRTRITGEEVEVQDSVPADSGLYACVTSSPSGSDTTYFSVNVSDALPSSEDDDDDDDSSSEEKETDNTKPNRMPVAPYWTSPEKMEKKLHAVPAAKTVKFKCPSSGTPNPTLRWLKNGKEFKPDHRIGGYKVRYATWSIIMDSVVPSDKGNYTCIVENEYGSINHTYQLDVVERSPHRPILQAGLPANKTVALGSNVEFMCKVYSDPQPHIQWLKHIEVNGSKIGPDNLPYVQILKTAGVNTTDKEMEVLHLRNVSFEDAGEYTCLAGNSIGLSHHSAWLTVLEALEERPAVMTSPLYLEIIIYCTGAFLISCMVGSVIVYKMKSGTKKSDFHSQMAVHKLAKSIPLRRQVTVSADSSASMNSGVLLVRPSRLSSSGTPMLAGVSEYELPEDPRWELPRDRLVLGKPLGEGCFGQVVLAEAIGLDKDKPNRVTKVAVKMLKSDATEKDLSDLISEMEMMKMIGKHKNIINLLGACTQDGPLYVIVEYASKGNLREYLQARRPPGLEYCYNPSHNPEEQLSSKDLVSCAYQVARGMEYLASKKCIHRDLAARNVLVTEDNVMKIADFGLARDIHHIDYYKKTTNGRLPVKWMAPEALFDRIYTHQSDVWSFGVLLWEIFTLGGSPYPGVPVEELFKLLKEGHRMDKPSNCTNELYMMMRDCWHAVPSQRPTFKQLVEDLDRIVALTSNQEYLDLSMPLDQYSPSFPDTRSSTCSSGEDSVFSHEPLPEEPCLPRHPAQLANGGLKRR
# Sequence of human FGFR1c/KLB receptor complex on primary human adipocytes (Q86Z14 whole entry, chain 2 of 2): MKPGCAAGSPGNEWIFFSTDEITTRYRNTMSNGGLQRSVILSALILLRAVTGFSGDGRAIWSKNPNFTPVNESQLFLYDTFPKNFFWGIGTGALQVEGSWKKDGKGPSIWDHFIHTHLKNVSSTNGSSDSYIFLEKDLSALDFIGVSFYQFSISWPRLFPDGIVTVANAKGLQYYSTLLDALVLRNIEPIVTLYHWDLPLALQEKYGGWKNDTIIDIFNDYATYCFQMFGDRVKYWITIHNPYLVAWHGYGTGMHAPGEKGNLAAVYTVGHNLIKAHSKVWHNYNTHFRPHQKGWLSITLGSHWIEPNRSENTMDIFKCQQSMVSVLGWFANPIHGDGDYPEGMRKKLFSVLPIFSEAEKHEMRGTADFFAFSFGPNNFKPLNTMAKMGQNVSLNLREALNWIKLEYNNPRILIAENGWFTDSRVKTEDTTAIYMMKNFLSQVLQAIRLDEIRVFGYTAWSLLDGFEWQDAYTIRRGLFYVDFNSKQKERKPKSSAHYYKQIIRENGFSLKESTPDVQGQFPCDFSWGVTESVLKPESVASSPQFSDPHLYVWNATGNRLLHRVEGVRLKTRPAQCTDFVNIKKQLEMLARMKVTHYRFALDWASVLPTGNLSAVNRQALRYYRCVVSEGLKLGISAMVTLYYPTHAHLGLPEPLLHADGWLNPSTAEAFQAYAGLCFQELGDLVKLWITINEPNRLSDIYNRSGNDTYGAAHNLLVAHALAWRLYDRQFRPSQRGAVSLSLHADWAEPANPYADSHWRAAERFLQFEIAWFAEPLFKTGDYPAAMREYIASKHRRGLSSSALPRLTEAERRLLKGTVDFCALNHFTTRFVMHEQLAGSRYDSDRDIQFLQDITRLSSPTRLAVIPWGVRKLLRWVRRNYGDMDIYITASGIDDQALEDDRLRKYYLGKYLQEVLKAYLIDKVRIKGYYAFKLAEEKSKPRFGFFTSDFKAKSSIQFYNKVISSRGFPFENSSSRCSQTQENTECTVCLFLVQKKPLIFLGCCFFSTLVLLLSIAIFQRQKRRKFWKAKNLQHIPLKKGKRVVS
# Sequence of cell surface receptor composed of FGFR1c and co-receptor beta-Klotho (KLB) on iLite FGF21 Assay Ready Cells (P11362 22-822, chain 1 of 2): as the sequence (P11362 22-822, chain 1 of 2) above
# Sequence of cell surface receptor composed of FGFR1c and co-receptor beta-Klotho (KLB) on iLite FGF21 Assay Ready Cells (Q86Z14 whole entry, chain 2 of 2): as the sequence (Q86Z14 whole entry, chain 2 of 2) above
Binder,koff [1],Mean E max [2],Mean EC50 [2],"In-Cell Western pERK EC50, primary human adipocytes [3]"
B1,0.00011 s⁻¹,108%,133 pM,
B2,9.9e-05 s⁻¹,90%,104 pM,
B3,0.00017 s⁻¹,110%,129 pM,
B4,9.9e-05 s⁻¹,107%,134 pM,
B5,,,,0.078 nmol/L
B6,,,,0.116 nmol/L

# — US20220010021A1 (Sanofi, published 2022)
